Patent publication US20220048967A1 (published 2022)
Numbering of substitutions follows the chain as printed.

B1: Example 367 (peptide)
peptide: YXEGTFTSDYSIXLDKKAQXEFIEXLIAGGPSSGAPPPS
modifications: Aib2, αMeL13, K17 conjugated to (2-[2-(2-Amino-ethoxy)-ethoxy]-acetyl)2-(γ-Glu)-CO-(CH2)18-CO2H, Aib20, αMeY25, C-terminal amide (NH2)
B2: Example 368 (peptide)
peptide: B1 peptide with Y1X, K16X, X25Y
modifications: D-Tyr1, Aib2, αMeL13, Orn16, K17 conjugated to (2-[2-(2-Amino-ethoxy)-ethoxy]-acetyl)2-(γ-Glu)-CO-(CH2)16-CO2H, Aib20, C-terminal amide (NH2)
B3: Example 369 (peptide)
peptide: B1 peptide with Y1X, K16X, E21D, X25Y
modifications: D-Tyr1, Aib2, αMeL13, Orn16, K17 conjugated to (2-[2-(2-Amino-ethoxy)-ethoxy]-acetyl)2-(γ-Glu)-CO-(CH2)18-CO2H, Aib20, C-terminal amide (NH2)
B4: Example 370 (peptide)
peptide: XXEGTFTSDYSIXLDXKAQXEFIEYLIAGGPSSG
modifications: D-Tyr1, Aib2, αMeL13, Orn16, K17 conjugated to (2-[2-(2-Amino-ethoxy)-ethoxy]-acetyl)2-(γ-Glu)-CO-(CH2)18-CO2H, Aib20, C-terminal amide (NH2)
B5: Example 371 (peptide)
peptide: B1 peptide with Y1X, K16X, X25Y
modifications: D-Tyr1, Aib2, αMeL13, Orn16, K17 conjugated to (2-[2-(2-Amino-ethoxy)-ethoxy]-acetyl)-(γ-Glu)-CO-(CH2)18-CO2H, Aib20, C-terminal amide (NH2)
B6: Example 372 (peptide)
peptide: B1 peptide with Y1X
modifications: D-Tyr1, Aib2, αMeL13, K17 conjugated to (2-[2-(2-Amino-ethoxy)-ethoxy]-acetyl)-(γ-Glu)-CO-(CH2)18-CO2H, Aib20, αMeY25, C-terminal amide (NH2)
B7: Example 373 (peptide)
peptide: B1 peptide with Y1X, E21A
modifications: D-Tyr1, Aib2, αMeL13, K17 conjugated to (2-[2-(2-Amino-ethoxy)-ethoxy]-acetyl)-(γ-Glu)-CO-(CH2)18-CO2H, Aib20, αMeY25, C-terminal amide (NH2)
B8: Example 374 (peptide)
peptide: B1 peptide with Y1X
modifications: D-Tyr1, Aib2, αMeL13, K17 conjugated to (2-[2-(2-Amino-ethoxy)-ethoxy]-acetyl)2-(γ-Glu)-CO-(CH2)16-CO2H, Aib20, αMeY25, C-terminal amide (NH2)
B9: Example 375 (peptide)
peptide: B1 peptide with Y1X, K16X
modifications: D-Tyr1, Aib2, αMeL13, Orn16, K17 conjugated to (2-[2-(2-Amino-ethoxy)-ethoxy]-acetyl)2-(γ-Glu)-CO-(CH2)16-CO2H, Aib20, αMeY25, C-terminal amide (NH2)
B10: Example 376 (peptide)
peptide: B1 peptide with Y1X, E21A
modifications: D-Tyr1, Aib2, αMeL13, K17 conjugated to (2-[2-(2-Amino-ethoxy)-ethoxy]-acetyl)2-(γ-Glu)-CO-(CH2)16-CO2H, Aib20, αMeY25, C-terminal amide (NH2)
B11: Example 377 (peptide)
peptide: B1 peptide with Y1X, K16X, E21A
modifications: D-Tyr1, Aib2, αMeL13, Orn16, K17 conjugated to (2-[2-(2-Amino-ethoxy)-ethoxy]-acetyl)2-(γ-Glu)-CO-(CH2)16-CO2H, Aib20, αMeY25, C-terminal amide (NH2)
B12: Example 378 (peptide)
peptide: B1 peptide with Y1X, X25Y
modifications: D-Tyr1, Aib2, αMeL13, K17 conjugated to (2-[2-(2-Amino-ethoxy)-ethoxy]-acetyl)-(γ-Glu)-CO-(CH2)18-CO2H, Aib20, C-terminal amide (NH2)
B13: Example 379 (peptide)
peptide: B1 peptide with Y1X, A28E
modifications: D-Tyr1, Aib2, αMeL13, K17 conjugated to (2-[2-(2-Amino-ethoxy)-ethoxy]-acetyl)2-(γ-Glu)-CO-(CH2)18-CO2H, Aib20, αMeY25, C-terminal amide (NH2)
B14: Example 380 (peptide)
peptide: B1 peptide with Y1X, K16X, A28E
modifications: D-Tyr1, Aib2, αMeL13, Orn16, K17 conjugated to (2-[2-(2-Amino-ethoxy)-ethoxy]-acetyl)2-(γ-Glu)-CO-(CH2)18-CO2H, Aib20, αMeY25, C-terminal amide (NH2)

Biological target: human GLP-1 receptor (human, UniProt P43220 24-463)
Test: cell-based or functional assay
Wherever hGLP1R B-Arrestin2 % Top is given: reference of the scale not given here.
Wherever hGLP1R GTPgS % Top is given: reference of the scale not given here.

Binder | hGLP1R GTPgS % Top [%] | hGLP1R GTPgS Rel EC50 [nM]
B1 | 89.7 | 0.289
B2 | 68.9 | 0.495
B3 | 58.8 | 0.381
B4 | 63.7 | 0.428
B5 | 62.5 | 0.27
B6 | 69.1 | 0.379
B7 | 65.6 | 0.336
B8 | 67.1 | 0.345
B9 | 70.4 | 0.419
B10 | 72.6 | 0.326
B11 | 68.4 | 0.356
B12 | 68.6 | 0.359
B13 | 71 | 0.239
B14 | 66.8 | 0.188

Biological target: Pro-Link-tagged Human GLP-1R (human, UniProt P43220 24-463)
Test: cell-based or functional assay

Binder | hGLP1R B-Arrestin2 % Top [%] | hGLP1R B-Arrestin2 Rel EC50 [nM]
B1 | 70.6 | 6.66
B2 | 21.3 | 47.9
B3 | 19.9 | 41.4
B4 | 23 | 9.9
B5 | 21.7 | 14.2
B6 | 32.9 | 9.81
B7 | 22.9 | 9.54
B8 | 34.7 | 21.8
B9 | 24.2 | 11.4
B10 | 25.6 | 12.3
B11 | 16.7 | 5.32
B12 | – | > 10200
B13 | 31.9 | 18.1
B14 | 35 | 13.7
